The values that follow come from US5770702, “Fibronectin binding protein as well as its preparation” (dated 1998).

The target in this assay is Human fibronectin (intact) (human, UniProt P02751-8, 125I-labelled in the cell binding assays; coupled to Sepharose in the affinity chromatography). The assay can be described thus: inhibition of labelled fibronectin binding to S. aureus cells.

B1: 165 kD fibronectin binding protein (FNBP) isolated from E. coli pFR001 (receptor)
chain: ASEQKTTTVEENGNSATDNKTSETQTTATNVNHIEETQSYNATVTEQPSNATQVTTEEAPKAVQAPQTAQPANIETVKEEVVKEEAKPQVKETTQSQDNSGDQRQVDLTPKKATQNQVAETQVEVAQPRTASESKPRVTRSADVAEAKEASNAKVETGTDVTSKVTVEIGSIEGHNNTNKVEPHAGQRAVLKYKLKFENGLHQGDYFDFTLSNNVNTHGVSTARKVPEIKNGSVVMATGEVLEGGKIRYTFTNDIEDKVDVTAELEINLFIDPKTVQTNGNQTITSTLNEEQTSKELDVKYKDGIGNYYANLNGSIETFNKANNRFSHVAFIKPNNGKTTSVTVTGTLMKGSNQNGNQPKVRIFEYLGNNEDIAKSVYANTTDTSKFKEVTSNMSGNLNLQNNGSYSLNIENLDKTYVVHYDGEYLNGTDEVDFRTQMVGHPEQLYKYYYDRGYTLTWDNGLVLYSNKANGNEKNGPIIQNNKFEYKEDTIKETLTGQYDKNLVTTVEEEYDSSTLDIDYHTAIDGGGGYVDGYIETIEETDSSAIDIDYHTAVDSEAGHVGGYTESSEESNPIDFEESTHENSKHHADVVEYEEDTNPGGGQVTTESNLVEFDEESTKGIVTGAVSDHTTVEDTKEYTTESNLIELVDELPEEHGQAQGPVEEITKNNHHISHSGLGTENGHGNYDVIEEIEENSHVDIKSELGYEGGQNSGNQSFEEDTEEDKPKYEQGGNIVDIDFDSVPQIHGQNKGNQSFEEDTEKDKPKYEHGGNIIDIDFDSVPHIHGFNKHTEIIEEDTNKDKPSYQFGGHNSVDFEEDTLPKVSGQNEGQQTIEEDTTPPIVPPTPPTPEVPSEPETPTPPTPEVPSEPETPTPPTPEVPSEPETPTPPTPEVPAEPGKPVPPAKEEPKKPSKPVEQGKVVTPVIEINEKVKAVAPTKKPQSKKSELPETGGEESTNKGMLFGGLFSILGLALLRRNKKNHKA
In the case of B1, the “fold more active than the 87 kD protein on a molar basis” value came to 30 times.
